The supplement of paper PMC7877785
± gives the uncertainty stated by the source.

Assay: self-splicing fitness, log relative to wild type (ln ratio); higher = more splicing; Tetrahymena group I intron in knt gene, E. coli kanamycin selection, DiMSum; sequences stand for … in CUCUCU…GGAGGGAAAAGUUAUCAGGCAUGCACCUGGUAGCUAGUCUUUAAACCAAUAGAUUGCAUCGGUUUAAAAGGCAAGACCGUCAAAUUGCGGGAAAGGGGUCAACAGCCGUUCAGUACCAAGUCUCAGGGGAAACUUUGAGAUGGCCUUGCAAAGGGUAUGGUAAUAAGCUGACGGACAUGGUCCUAACCACGCAGCCAAGUCCUAAGUCAACAGAUCUUCUGUUGAUAUGGAUGCAGUUCACAGACUAAAUGUCGGUCGGGGAAGAUGUAUUCUUCUCAUAAGAUAUAGUCGGACCUCUCCUUAAUGGGAGCUAGCGGAUGAAGUGAUGCAACACUGGAGCCGCUGGGAACUAAUUUGUAUGCGAAAGUAUAUUGAUUAGUUUUGGAGUACUCGUGGUCG
Procedure, shortened: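 Colonies from six replicate transformations of E. coli BL21(DE3) were pooled and amplicon-sequenced on an Illumina HiSeq 2500. The library placed an intron with all eight P1ex-region nucleotides randomised inside the knt kanamycin-resistance gene on pET-22b(+), and cells grew overnight at 37°C or 30°C on LB agar with or without 25 μg/mL kanamycin (plus 100 μg/mL carbenicillin, 50 μM IPTG, 0.2% rhamnose). Fitness is the DiMSum error-weighted combination of wild-type-normalised replicate fold changes, kanamycin versus none.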

Sequence	self-splicing fitness (ln) (30 °C)	self-splicing fitness (ln) (37 °C)
GGUUAGCAAUAUUACGAUAA	-0.985 ± 0.12	-0.35 ± 0.14
GGUUAGCAAUAUUACGAUCA	-0.0432 ± 0.15	-0.342 ± 0.13
GGUUAGCAAUAUUACGAUUC	-0.602 ± 0.11	-0.718 ± 0.17
GGUUAGCAAUAUUACGCACU	-2.48 ± 0.28	-2.32 ± 0.25
GGUUAGCAAUAUUACGCAUC	-0.527 ± 0.33	-0.989 ± 0.38
GGUUAGCAAUAUUACGCGGG	-3.71 ± 0.22	-1.23 ± 0.12
GGUUAGCAAUAUUACGGCAC	-0.473 ± 0.15	-0.251 ± 0.18
GGUUAGCAAUAUUACGGUCA	0.387 ± 0.31	-1.03 ± 0.12
GGUUAGCAAUAUUACGUAGU	-1.03 ± 0.097	-0.417 ± 0.12
GGUUAGCAAUAUUACGUGUA	-1.7 ± 0.13	-0.817 ± 0.1
GGUUAGCAAUAUUACGUUGC	-2.41 ± 0.22	-1.12 ± 0.42
GUAAAGCAAUAUUACGAAGA	-1.9 ± 0.1	-1.03 ± 0.12
GUAAAGCAAUAUUACGACCG	-0.799 ± 0.43	-0.23 ± 0.36
GUAAAGCAAUAUUACGAGAA	-2.06 ± 0.14	-0.181 ± 0.21
GUAAAGCAAUAUUACGAUAA	-0.115 ± 0.076	0.632 ± 0.11
GUAAAGCAAUAUUACGAUGU	-0.534 ± 0.081	-0.0801 ± 0.1
GUAAAGCAAUAUUACGCACC	-0.664 ± 0.49	–
GUAAAGCAAUAUUACGCCUC	-0.782 ± 0.12	0.463 ± 0.16
GUAAAGCAAUAUUACGCGCC	-2.22 ± 0.2	-1.03 ± 0.23
GUAAAGCAAUAUUACGGAAG	-2.86 ± 0.18	-1.36 ± 0.15
GUAAAGCAAUAUUACGGAGG	-3.29 ± 0.37	-2.45 ± 0.38
GUAAAGCAAUAUUACGGAGU	-3.08 ± 0.26	-2.81 ± 0.29
GUAAAGCAAUAUUACGGGCA	-0.131 ± 0.13	-0.0319 ± 0.15
GUAAAGCAAUAUUACGGGGG	-3.31 ± 0.18	-2.87 ± 0.31
GUAAAGCAAUAUUACGGUAA	-1.09 ± 0.086	-0.336 ± 0.11

Sequence	self-splicing fitness (ln) (30 °C)	self-splicing fitness (ln) (37 °C)
GUAAAGCAAUAUUACGUAGU	-2.42 ± 0.12	-1.36 ± 0.18
GUAAAGCAAUAUUACGUCCG	-0.907 ± 0.088	-0.395 ± 0.14
GUAAAGCAAUAUUACGUGCA	0.139 ± 0.058	0.551 ± 0.093
GUAAAGCAAUAUUACGUGUA	-1.44 ± 0.064	-0.702 ± 0.087
GUAAAGCAAUAUUACGUUGU	-3.6 ± 0.17	-2.13 ± 0.19
GUAAAGCAAUAUUACGUUUA	-1.08 ± 0.077	-0.69 ± 0.11
GUACAGCAAUAUUACGAAAG	-3.47 ± 0.1	-1.04 ± 0.092
GUACAGCAAUAUUACGAAGC	-1.83 ± 0.17	-1.5 ± 0.28
GUACAGCAAUAUUACGAAGG	–	-0.639 ± 0.25
GUACAGCAAUAUUACGAGAU	-3.53 ± 0.16	-2.03 ± 0.11
GUACAGCAAUAUUACGAGCC	-1.6 ± 0.36	-2.01 ± 0.46
GUACAGCAAUAUUACGAUAU	-2.07 ± 0.1	-1.48 ± 0.13
GUACAGCAAUAUUACGAUGA	-1.87 ± 0.097	-0.889 ± 0.11
GUACAGCAAUAUUACGAUGU	-1.33 ± 0.081	0.106 ± 0.088
GUACAGCAAUAUUACGCACA	-1.52 ± 0.11	-0.471 ± 0.11
GUACAGCAAUAUUACGCCAG	-3.75 ± 0.24	-2.32 ± 0.45
GUACAGCAAUAUUACGCCUC	-0.924 ± 0.14	-0.219 ± 0.16
GUACAGCAAUAUUACGCCUU	-1.23 ± 0.095	-0.531 ± 0.11
GUACAGCAAUAUUACGCGUC	-3.1 ± 0.21	-0.709 ± 0.14
GUACAGCAAUAUUACGCUCC	-1.81 ± 0.29	-0.404 ± 0.23
GUACAGCAAUAUUACGCUUA	-1.58 ± 0.08	-1.03 ± 0.091
GUACAGCAAUAUUACGGAAA	-2.77 ± 0.22	-2.72 ± 0.25
GUACAGCAAUAUUACGGAAC	-3.3 ± 0.19	-0.753 ± 0.17
GUACAGCAAUAUUACGGAGC	-3.06 ± 0.14	-2.17 ± 0.15
GUACAGCAAUAUUACGGAUU	-2.88 ± 0.11	-0.823 ± 0.084

Sequence	self-splicing fitness (ln) (30 °C)	self-splicing fitness (ln) (37 °C)
GUACAGCAAUAUUACGGCAA	-1.59 ± 0.15	-1.32 ± 0.12
GUACAGCAAUAUUACGGUAC	-4.08 ± 0.43	-2.8 ± 0.26
GUACAGCAAUAUUACGGUCC	-0.203 ± 0.11	-0.766 ± 0.13
GUACAGCAAUAUUACGUAAU	-1.66 ± 0.087	-0.807 ± 0.11
GUACAGCAAUAUUACGUCUG	-2.04 ± 0.23	-2.09 ± 0.18
GUACAGCAAUAUUACGUGCC	-2.93 ± 0.13	-2.54 ± 0.22
GUACAGCAAUAUUACGUUCA	-1.51 ± 0.15	-0.775 ± 0.17
GUAGAGCAAUAUUACGAAAG	-1.56 ± 0.32	–
GUAGAGCAAUAUUACGAAUG	-3.89 ± 0.3	-2.16 ± 0.21
GUAGAGCAAUAUUACGAGUA	-3.5 ± 0.28	-1.69 ± 0.29
GUAGAGCAAUAUUACGAGUG	-1.59 ± 0.18	-2.1 ± 0.21
GUAGAGCAAUAUUACGAUAU	-0.731 ± 0.088	0.237 ± 0.12
GUAGAGCAAUAUUACGCAUU	-2.45 ± 0.18	-0.619 ± 0.25
GUAGAGCAAUAUUACGCGUG	-1.18 ± 0.11	-0.777 ± 0.18
GUAGAGCAAUAUUACGCUAC	-2.54 ± 0.25	-2.15 ± 0.34
GUAGAGCAAUAUUACGCUUU	-2.36 ± 0.19	-2 ± 0.23
GUAGAGCAAUAUUACGGAGA	-2.58 ± 0.3	–
GUAGAGCAAUAUUACGGAUA	–	-0.969 ± 0.41
GUAGAGCAAUAUUACGGCCG	-0.867 ± 0.16	0.266 ± 0.21
GUAGAGCAAUAUUACGGCGA	-1.87 ± 0.13	-0.23 ± 0.16
GUAGAGCAAUAUUACGGGCU	-2.37 ± 0.3	-1.89 ± 0.41
GUAGAGCAAUAUUACGGUCG	-2.63 ± 0.19	-1.8 ± 0.19
GUAGAGCAAUAUUACGGUGA	-2.14 ± 0.13	-1.09 ± 0.2
GUAGAGCAAUAUUACGUAAA	-4.18 ± 0.36	-1.4 ± 0.27
GUAGAGCAAUAUUACGUCAU	-1.65 ± 0.1	-1.36 ± 0.11

Sequence	self-splicing fitness (ln) (30 °C)	self-splicing fitness (ln) (37 °C)
GUAGAGCAAUAUUACGUCGU	-0.814 ± 0.084	-0.0553 ± 0.11
GUAGAGCAAUAUUACGUGAC	-2.42 ± 0.16	-1.31 ± 0.19
GUAGAGCAAUAUUACGUGCG	-1.13 ± 0.081	0.0284 ± 0.12
GUAGAGCAAUAUUACGUGGA	–	-3.25 ± 0.3
GUAGAGCAAUAUUACGUGUC	-1.68 ± 0.094	-0.37 ± 0.13
GUAUAGCAAUAUUACGAAUU	-3.2 ± 0.22	-1.13 ± 0.18
GUAUAGCAAUAUUACGACAC	0.143 ± 0.091	0.241 ± 0.12
GUAUAGCAAUAUUACGACAU	-0.233 ± 0.014	0.0814 ± 0.033
GUAUAGCAAUAUUACGCGAA	-2.01 ± 0.36	-0.808 ± 0.23
GUAUAGCAAUAUUACGCGAC	-2.49 ± 0.3	–
GUAUAGCAAUAUUACGCGAU	-2.03 ± 0.24	-1.73 ± 0.26
GUAUAGCAAUAUUACGCGCG	-1.55 ± 0.14	-0.678 ± 0.15
GUAUAGCAAUAUUACGCGUU	-1.21 ± 0.11	-1.33 ± 0.17
GUAUAGCAAUAUUACGCUAA	-2.52 ± 0.2	-1.57 ± 0.16
GUAUAGCAAUAUUACGGACA	-2.7 ± 0.27	-1.1 ± 0.15
GUAUAGCAAUAUUACGGACU	-1.83 ± 0.16	-1.27 ± 0.3
GUAUAGCAAUAUUACGGAUA	-1.43 ± 0.27	-1.55 ± 0.28
GUAUAGCAAUAUUACGGCGA	-1.21 ± 0.097	-0.087 ± 0.1
GUAUAGCAAUAUUACGGCUC	0.0185 ± 0.15	0.629 ± 0.15
GUAUAGCAAUAUUACGGCUU	-0.746 ± 0.13	1.21 ± 0.2
GUAUAGCAAUAUUACGGUCG	-2.06 ± 0.15	0.0791 ± 0.15
GUAUAGCAAUAUUACGUCCA	-1.58 ± 0.26	-0.506 ± 0.23
